For orientation: Kd means the constant that tells how readily two partners part at equilibrium. A higher Kd goes with a looser complex.

The assay deals with T1, soluble human FcRn complexed with β2-microglobulin (human, UniProt P61769 21-119, limits assumed).
T1 construct: also called hFcRn
Briefly: Biacore SPR, pH 7.0.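 Further: test antibodies captured on a Protein L chip with human FcRn flowed over as analyte, KD obtained as the ratio of dissociation to association rate constants.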

T1 sequence (chain, as listed by the source limits assumed, chain 1 of 2): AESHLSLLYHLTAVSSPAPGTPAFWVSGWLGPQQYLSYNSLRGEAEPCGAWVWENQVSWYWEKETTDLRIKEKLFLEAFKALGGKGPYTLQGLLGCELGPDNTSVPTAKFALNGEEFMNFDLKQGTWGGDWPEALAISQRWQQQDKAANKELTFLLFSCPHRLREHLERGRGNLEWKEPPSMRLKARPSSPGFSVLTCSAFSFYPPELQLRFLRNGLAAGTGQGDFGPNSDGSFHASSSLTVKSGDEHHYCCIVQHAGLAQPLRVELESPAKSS
T1 sequence (P61769 21-119 limits assumed, chain 2 of 2): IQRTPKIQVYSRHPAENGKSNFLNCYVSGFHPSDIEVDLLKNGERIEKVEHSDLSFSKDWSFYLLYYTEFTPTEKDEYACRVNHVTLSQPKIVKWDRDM

B1: IgG1-F1023 (antibody)
heavy: QVQLQESGPGLVKPSETLSLTCAVSGHSISHDHAWSWVRQPPGEGLEWIGFISYSGITNYNPSLQGRVTISRDNSKNTLYLQMNSLRAEDTAVYYCARSLARTTAMDYWGEGTLVTVSSASTKGPSVFPLAPSSKSTSGGTAALGCLVKDYFPEPVTVSWNSGALTSGVHTFPAVLQSSGLYSLSSVVTVPSSSLGTQTYICNVNHKPSNTKVDKKVEPKSCDKTHTCPPCPAPELLGGPDVFLFPPKPKDVLYISRTPEVTCVVVDVSHEDPEVKFNWYVDGVEVHNAKTKPREEQYNSTYRVVSVLQVLHADWLNGKEYKCKVSNKALPAPIEKTISKAKGQPREPQVYTLPPSRDELTKNQVSLTCLVKGFYPSDIAVEWESNGQPENNYKTTPPVLDSDGSFFLYSKLTVDKSRWQQGNVFSCSVMHEALHYHVTQKSLSLSP
light: not shown
notes: EU numbering; copies: 2 + 2
With B1, the Kd stood at 44 nM.

B2: IgG1-F1034 (antibody)
heavy: QVQLQESGPGLVKPSETLSLTCAVSGHSISHDHAWSWVRQPPGEGLEWIGFISYSGITNYNPSLQGRVTISRDNSKNTLYLQMNSLRAEDTAVYYCARSLARTTAMDYWGEGTLVTVSSASTKGPSVFPLAPSSKSTSGGTAALGCLVKDYFPEPVTVSWNSGALTSGVHTFPAVLQSSGLYSLSSVVTVPSSSLGTQTYICNVNHKPSNTKVDKKVEPKSCDKTHTCPPCPAPELKGGPKVFLFPPKPKDTLYISRTPEVTCVVVDVSHEDPEVKFNWYVDGVEVHNAKTKPREEQYNSTYRVVSVLTPLHQDWLNGKEYKCKVSNKALPAPIEKTISKAKGQPREPQVYTLPPSRDELTKNQVSLTCLVKGFYPSDIAVEWESNGQPENNYKTTPPVLDSDGSFFLYSKLTVDKSRWQQGNVFSCSVMHEALHYHVTQKSLSLSP
light: not shown
notes: EU numbering; copies: 2 + 2
In turn, B2 returned a dissociation constant (Kd) of 15 nM.

B3: IgG1-F1026 (antibody)
heavy: QVQLQESGPGLVKPSETLSLTCAVSGHSISHDHAWSWVRQPPGEGLEWIGFISYSGITNYNPSLQGRVTISRDNSKNTLYLQMNSLRAEDTAVYYCARSLARTTAMDYWGEGTLVTVSSASTKGPSVFPLAPSSKSTSGGTAALGCLVKDYFPEPVTVSWNSGALTSGVHTFPAVLQSSGLYSLSSVVTVPSSSLGTQTYICNVNHKPSNTKVDKKVEPKSCDKTHTCPPCPAPELLGGPSVFLFPPKPKDTLYISRTPEVTCVVVDVSHEDPEVKFNWYVDGVEVHNAKTKPREEQYNSTYRVVSVLAVLHHDWLNGKEYKCKVSNKALPAPIEKTISKAKGQPREPQVYTLPPSRDELTKNQVSLTCLVKGFYPSDIAVEWESNGQPENNYKTTPPVLDSDGSFFLYSKLTVDKSRWQQGNVFSCSVMHEALHYHVTQKSLSLSP
light: not shown
notes: EU numbering; copies: 2 + 2
Take B3: the affinity, expressed as Kd, was 84 nM.

B4: IgG1-F1025 (antibody)
heavy: QVQLQESGPGLVKPSETLSLTCAVSGHSISHDHAWSWVRQPPGEGLEWIGFISYSGITNYNPSLQGRVTISRDNSKNTLYLQMNSLRAEDTAVYYCARSLARTTAMDYWGEGTLVTVSSASTKGPSVFPLAPSSKSTSGGTAALGCLVKDYFPEPVTVSWNSGALTSGVHTFPAVLQSSGLYSLSSVVTVPSSSLGTQTYICNVNHKPSNTKVDKKVEPKSCDKTHTCPPCPAPELLGGPDVFLFPPKPKDVLYISRTPEVTCVVVDVSHEDPEVKFNWYVDGVEVHNAKTKPREEQYNSTYRVVSVLQVLHADWLNGKEYKCKVSNDAYPAPIEKTISKAKGQPREPQVYTLPPSRDELTKNQVSLTCLVKGFYPSDIAVEWESNGQPENNYKTTPPVLDSDGSFFLYSKLTVDKSRWQQGNVFSCSVMHEALHYHVTQKSLSLSP
light: not shown
notes: EU numbering; copies: 2 + 2
As for B4, the affinity, expressed as Kd, was 36 nM. This Kd is about 2.3-fold lower than that of the molecule before.

B5: IgG1-F1032 (antibody)
heavy: QVQLQESGPGLVKPSETLSLTCAVSGHSISHDHAWSWVRQPPGEGLEWIGFISYSGITNYNPSLQGRVTISRDNSKNTLYLQMNSLRAEDTAVYYCARSLARTTAMDYWGEGTLVTVSSASTKGPSVFPLAPSSKSTSGGTAALGCLVKDYFPEPVTVSWNSGALTSGVHTFPAVLQSSGLYSLSSVVTVPSSSLGTQTYICNVNHKPSNTKVDKKVEPKSCDKTHTCPPCPAPELLGGDSVFLFPPKPKDVLYISRTPEVTCVVVDVSHEDPEVKFNWYVDGVEVHNAKTKPREEQYNSTYRVVSVLQVLHADWLNGKEYKCKVSGKALPAPIEKTISKAKGQPREPQVYTLPPSRDELTKNQVSLTCLVKGFYPSDIAVEWESNGQPENNYKTTPPVLDSDGSFFLYSKLTVDKSRWQQGNVFSCSVMHEALHYHVTQKSLSLSP
light: not shown
notes: EU numbering; copies: 2 + 2
B5 showed a Kd of 43 nM.

B6: IgG1-F1035 (antibody)
heavy: QVQLQESGPGLVKPSETLSLTCAVSGHSISHDHAWSWVRQPPGEGLEWIGFISYSGITNYNPSLQGRVTISRDNSKNTLYLQMNSLRAEDTAVYYCARSLARTTAMDYWGEGTLVTVSSASTKGPSVFPLAPSSKSTSGGTAALGCLVKDYFPEPVTVSWNSGALTSGVHTFPAVLQSSGLYSLSSVVTVPSSSLGTQTYICNVNHKPSNTKVDKKVEPKSCDKTHTCPPCPAPELKGGPKVFLFPPKPKDTLYISRTPEVTCVVVDVSHEDPEVKFNWYVDGVEVHNAKTKPREEQYNSTYRVVSVLQPLHADWLNGKEYKCKVSNKALPAPIEKTISKAKGQPREPQVYTLPPSRDELTKNQVSLTCLVKGFYPSDIAVEWESNGQPENNYKTTPPVLDSDGSFFLYSKLTVDKSRWQQGNVFSCSVMHEALHYHVTQKSLSLSP
light: not shown
notes: EU numbering; copies: 2 + 2
In turn, B6 returned a Kd of 10 nM.

B7: IgG1-F1029 (antibody)
heavy: QVQLQESGPGLVKPSETLSLTCAVSGHSISHDHAWSWVRQPPGEGLEWIGFISYSGITNYNPSLQGRVTISRDNSKNTLYLQMNSLRAEDTAVYYCARSLARTTAMDYWGEGTLVTVSSASTKGPSVFPLAPSSKSTSGGTAALGCLVKDYFPEPVTVSWNSGALTSGVHTFPAVLQSSGLYSLSSVVTVPSSSLGTQTYICNVNHKPSNTKVDKKVEPKSCDKTHTCPPCPAPELLGGPSVFLFPPKPKDVLYISRTPEVTCVVVDVSHEDPEVKFNWYVDGVEVHNAKTKPREEQYNSTYRVVSVLQVLHADWLNGKEYKCKVSNKALPAPEEKTISKAKGQPREPQVYTLPPSRDELTKNQVSLTCLVKGFYPSDIAVEWESNGQPENNYKTTPPVLDSDGSFFLYSKLTVDKSRWQQGNVFSCSVMHEALHYHVTQKSLSLSP
light: not shown
notes: EU numbering; copies: 2 + 2
With B7, the Kd turned out to be 51 nM.

B8: IgG1-F1028 (antibody)
heavy: QVQLQESGPGLVKPSETLSLTCAVSGHSISHDHAWSWVRQPPGEGLEWIGFISYSGITNYNPSLQGRVTISRDNSKNTLYLQMNSLRAEDTAVYYCARSLARTTAMDYWGEGTLVTVSSASTKGPSVFPLAPSSKSTSGGTAALGCLVKDYFPEPVTVSWNSGALTSGVHTFPAVLQSSGLYSLSSVVTVPSSSLGTQTYICNVNHKPSNTKVDKKVEPKSCDKTHTCPPCPAPELLAGPDVFLFPPKPKDVLYISRTPEVTCVVVDVSHEDPEVKFNWYVDGVEVHNAKTKPREEQYNSTYRVVSVLQVLHADWLNGKEYKCKVSNKALPAPIEKTISKAKGQPREPQVYTLPPSRDELTKNQVSLTCLVKGFYPSDIAVEWESNGQPENNYKTTPPVLDSDGSFFLYSKLTVDKSRWQQGNVFSCSVMHEALHYHVTQKSLSLSP
light: not shown
notes: EU numbering; copies: 2 + 2
B8 came in with a Kd of 46 nM.

B9: IgG1-F1036 (antibody)
heavy: QVQLQESGPGLVKPSETLSLTCAVSGHSISHDHAWSWVRQPPGEGLEWIGFISYSGITNYNPSLQGRVTISRDNSKNTLYLQMNSLRAEDTAVYYCARSLARTTAMDYWGEGTLVTVSSASTKGPSVFPLAPSSKSTSGGTAALGCLVKDYFPEPVTVSWNSGALTSGVHTFPAVLQSSGLYSLSSVVTVPSSSLGTQTYICNVNHKPSNTKVDKKVEPKSCDKTHTCPPCPAPELKGGPKVFLFPPKPKDTLYISRTPEVTCVVVDVSHEDPEVKFNWYVDGVEVHEAKTKPREEQYNSTYRVVSVLQVLHADWLNGKEYKCKVSNKALPAPIEKTISKAKGQPREPQVYTLPPSRDELTKNQVSLTCLVKGFYPSDIAVEWESNGQPENNYKTTPPVLDSDGSFFLYSKLTVDKSRWQQGNVFSCSVMHEALHYHVTQKSLSLSP
light: not shown
notes: EU numbering; copies: 2 + 2
For the molecule B9, the Kd stood at 14 nM.

B10: IgG1-F1024 (antibody)
heavy: QVQLQESGPGLVKPSETLSLTCAVSGHSISHDHAWSWVRQPPGEGLEWIGFISYSGITNYNPSLQGRVTISRDNSKNTLYLQMNSLRAEDTAVYYCARSLARTTAMDYWGEGTLVTVSSASTKGPSVFPLAPSSKSTSGGTAALGCLVKDYFPEPVTVSWNSGALTSGVHTFPAVLQSSGLYSLSSVVTVPSSSLGTQTYICNVNHKPSNTKVDKKVEPKSCDKTHTCPPCPAPELLGGPSVFLFPPKPKDVLYISRTPEVTCVVVDVSHEDPEVKFNWYVDGVEVHNAKTKPREEQYNSTYRVVSVLQVLHADWLNGKEYKCKVSNDAYPAPIEKTISKAKGQPREPQVYTLPPSRDELTKNQVSLTCLVKGFYPSDIAVEWESNGQPENNYKTTPPVLDSDGSFFLYSKLTVDKSRWQQGNVFSCSVMHEALHYHVTQKSLSLSP
light: not shown
notes: EU numbering; copies: 2 + 2
For B10, the Kd is 40 nM.

B11: IgG1-F1037 (antibody)
heavy: QVQLQESGPGLVKPSETLSLTCAVSGHSISHDHAWSWVRQPPGEGLEWIGFISYSGITNYNPSLQGRVTISRDNSKNTLYLQMNSLRAEDTAVYYCARSLARTTAMDYWGEGTLVTVSSASTKGPSVFPLAPSSKSTSGGTAALGCLVKDYFPEPVTVSWNSGALTSGVHTFPAVLQSSGLYSLSSVVTVPSSSLGTQTYICNVNHKPSNTKVDKKVEPKSCDKTHTCPPCPAPELKGGPKVFLFPPKPKDTLYISRTPEVTCVVVDVSHEDPEVKFNWYVDGVEVHNAKTKPREEQYNSTYRVVSVLQVLHADWLNGKEYKCKVSNKALPAPIEKTISKAKGQPREPQVYTLPPSRDELTKNQVSLTCLVKGFYPSDIAVEWESNGQPENNYKTTPPVLDSDGSFFLYSKLTVDKSRWQQGNVFSCSVIHEALHYHVTQKSLSLSP
light: not shown
notes: EU numbering; copies: 2 + 2
In the case of B11, binding was put at a Kd of 61 nM.

B12: IgG1-F1027 (antibody)
heavy: QVQLQESGPGLVKPSETLSLTCAVSGHSISHDHAWSWVRQPPGEGLEWIGFISYSGITNYNPSLQGRVTISRDNSKNTLYLQMNSLRAEDTAVYYCARSLARTTAMDYWGEGTLVTVSSASTKGPSVFPLAPSSKSTSGGTAALGCLVKDYFPEPVTVSWNSGALTSGVHTFPAVLQSSGLYSLSSVVTVPSSSLGTQTYICNVNHKPSNTKVDKKVEPKSCDKTHTCPPCPAPELRGGPKVFLFPPKPKDTLYISRTPEVTCVVVDVSHEDPEVKFNWYVDGVEVHNAKTKPREEQYNSTYRVVSVLAVLHHDWLNGKEYKCKVSNKALPAPIEKTISKAKGQPREPQVYTLPPSRDELTKNQVSLTCLVKGFYPSDIAVEWESNGQPENNYKTTPPVLDSDGSFFLYSKLTVDKSRWQQGNVFSCSVMHEALHYHVTQKSLSLSP
light: not shown
notes: EU numbering; copies: 2 + 2
The molecule B12 registered a Kd of 86 nM.

The values above are taken from patent US20200199241A1 (Chugai, published 2020).
